What was measured:
[1] = system: HIV-1 (envelope from strain HXB2); experiment: HIV Reporter Particle (HIVRP) assay; format: cell-based; details: envelope from strain HXB2, purified scFvs
[2] = system: CCR5-tropic strain BaL; format: cell-based, HIV-1
[3] = system: HIV particles pseudotyped with the surface protein of the Vesicular Stomatitis Virus (VSV-G); format: cell-based
[4] = system: CXCR4-tropic HIV-1 strain HXB2; format: cell-based; details: for effect on HIV-HXB2 replication: single cycle infectivity assay, FIG. 9
[5] = target: IZN17-G572D; experiment: Surface plasmon resonance (Biacore), IZN17-G572D; format: binding, HIV-1; details: peptide IZN17-G572D
Description: (§1) Affinity of D5 IgG for the hydrophobic pocket of HR1—The affinity of D5 IgG for various peptides was next determined by surface plasmon resonance (Biacore).

[6] = system: dual tropic strain (CCR5 and CXCR4) HIV 89.6; format: cell-based, HIV-1
[7] = target: T1, 5-Helix (Human immunodeficiency virus type 1 group M subtype B, UniProt P04578, C598G/DEL583-596/DEL601-623/N624G); details: Biacore, peptide 5-Helix
Description: as §1

[8] = target: IZN17-Q567R; experiment: Surface plasmon resonance (Biacore), IZN17-Q567R; format: binding, HIV-1; details: peptide IZN17-Q567R
Description: as §1

[9] = target: IZN36 (Human immunodeficiency virus type 1 group M subtype B, UniProt P04578); details: ALPHASCREEN, FIG. 10
[10] = system: IQN17; experiment: ALPHASCREEN D5 IgG/IQN17 binding assay; design: species or system HIV-1
[11] = target: IZN17-L565M; experiment: Surface plasmon resonance (Biacore), IZN17-L565M; format: binding, HIV-1; details: peptide IZN17-L565M
Description: as §1

[12] = target: IZN17; experiment: Surface plasmon resonance (Biacore), IZN17; format: binding, HIV-1; details: peptide IZN17
Description: as §1

[13] = target: IQN17-2Pro; experiment: Surface plasmon resonance (Biacore), IQN17-2Pro; format: binding, HIV-1; details: peptide IQN17-2Pro
Description: as §1

[14] = target: T1, 5-Helix; details: ALPHASCREEN, FIG. 10
[15] = target: interaction of biotinylated IZN36 with C34-HA (Human immunodeficiency virus type 1 group M subtype B, UniProt P04578); details: ALPHASCREEN, FIG. 15
[16] = system: HIV strain MN-1; format: cell-based, HIV-1; details: MN-1, single cycle infectivity assay

B1: D5 scFv: human scFv from phage display, SEQ ID NO:2, VH and VL joined by (G4S)3 linker; binds gp41 HR1 hydrophobic pocket (protein)
scFv: QVQLVQSGAEVRKPGASVKVSCKASGDTFSSYAISWVRQAPGQGLEWMGGIIPIFGTANYAQKFQGRVTITADESTSTAYMELSSLRSEDTAIYYCARDNPTLLGSDYWGKGTLVTVSSGGGGSGGGGSGGGGSDIQMTQSPSTLSASIGDRVTITCRASEGIYHWLAWYQQKPGKAPKLLIYKASSLASGAPSRFSGSGSGTDFTLTISSLQPDDFATYYCQQYSNYPLTFGGGTKLEIK
modifications: Homo sapien
ability to prevent HIV-1 entry [1]: capable of inhibiting HIV-1 entry | effect on HIV-BaL replication ([2]; single cycle infectivity assay): inhibited replication of HIV-BaL | prevention of infection by VSV-G pseudotyped particles [3]: Neither D5 nor X5 scFvs prevented infection | effect on HIV-HXB2 replication [4]: inhibited HIV—HXB2 replication

B2: B11 scFv: human scFv from phage display, SEQ ID NO:8, VH and VL joined by (G4S)3 linker; binds gp41 HR1 (protein)
scFv: QVQLVQSGAEVKKPGSSVKVSCKASGGTFSSYAISWVRQAPGQGLEWMGGIIPLFDTSNYAQNFQGRITITADKSTSTAYMELSSLRFEDTAIYYCARDNPLLLAMDVWGKGTTVTVSSGGGGSGGGGSGGGGSDIQMTQSPSTLSASIGDRVTITCRASEGIYHWLAWYQQKPGKAPKLLIYKASSLASGAPSRFSGSGSGTDFTLTISSLQPDDFATYYCQQYSNYPLTFGGGTKLEIK
modifications: Homo sapien
ability to prevent HIV-1 entry [1]: capable of inhibiting HIV-1 entry | effect on HIV-HXB2 replication [4]: displayed anti-viral properties against the HIV—HXB2 strain

B3: D5 IgG: full length human IgG4/kappa carrying D5 VH (SEQ ID NO:4) and VL (SEQ ID NO:6) (antibody, V domains shown)
VH: QVQLVQSGAEVRKPGASVKVSCKASGDTFSSYAISWVRQAPGQGLEWMGGIIPIFGTANYAQKFQGRVTITADESTSTAYMELSSLRSEDTAIYYCARDNPTLLGSDYWGKGTLVTVSS
VL: DIQMTQSPSTLSASIGDRVTITCRASEGIYHWLAWYQQKPGKAPKLLIYKASSLASGAPSRFSGSGSGTDFTLTISSLQPDDFATYYCQQYSNYPLTFGGGTKLEIK
modifications: human IgG4/kappa constant regions; Homo sapien
Kd [5]: 550 nM | Off [5]: 3.0e−3 1/S | On [5]: 5500 M⁻¹ s⁻¹ | fold less susceptible to neutralization than HXB2 ([6]; 89.6 versus HXB2): approximately 6 fold | Off [7]: 1.0e−4 1/S | On [7]: 390000 M⁻¹ s⁻¹ | Kd [8]: 1.5 nM | Off [8]: 1.2e−3 1/S | On [8]: 800000 M⁻¹ s⁻¹ | interaction with biotinylated IZN36 [9]: clear interaction | interaction with biotinylated IQN17 [10]: evident interaction | fold more sensitive than HXB2 ([2]; BaL versus HXB2): approximately 3 fold | Kd [11]: 0.3 nM | Off [11]: 8.9e−4 1/S | On [11]: 3e+06 M⁻¹ s⁻¹ | Kd [12]: 0.1 nM | Off [12]: 5.9e−4 1/S | On [12]: 6.1e+06 M⁻¹ s⁻¹ | IC50 [3]: Not active | Kd [13]: 240 nM | Off [13]: 2.2e−3 1/S | On [13]: 9000 M⁻¹ s⁻¹ | interaction with biotinylated 5-Helix [14]: clear interaction | effect on the interaction of C34-HA with IZN36 [15]: prevented the interaction of C34-HA with IZN36

B4: B11 IgG: full length human IgG1/kappa carrying B11 VH (SEQ ID NO:10) and VL (SEQ ID NO:12) (antibody, V domains shown)
VH: QVQLVQSGAEVKKPGSSVKVSCKASGGTFSSYAISWVRQAPGQGLEWMGGIIPLFDTSNYAQNFQGRITITADKSTSTAYMELSSLRFEDTAIYYCARDNPLLLAMDVWGKGTTVTVSS
VL: DIQMTQSPSTLSASIGDRVTITCRASEGIYHWLAWYQQKPGKAPKLLIYKASSLASGAPSRFSGSGSGTDFTLTISSLQPDDFATYYCQQYSNYPLTFGGGTKLEIK
modifications: human IgG1/kappa constant regions; Homo sapien
IC50 ([6]; HIV 89.6, single cycle infectivity assay): 943 nM | IC50 ([2]; HIV-BaL, single cycle infectivity assay): 73 nM | IC50 [16]: 244 nM | IC50 ([4]; HIV-HXB2, single cycle infectivity assay): 290 nM

From patent US7744887B2, “Human antibodies interacting with HIV gp41” (priority 2004, dated 2010)
